# From article PMC7749421, “Functional expression of human prostaglandin E2 receptor 4 (EP4) in E. coli and characterization of the binding property of EP4 with Gα proteins” (Biochemistry and Biophysics Reports, 2020)
# Tests used:
# [1] = biological target: T1, human prostaglandin E2 receptor 4 (EP4) (Homo sapiens, UniProt P35408); test: biochemical
# T1 construct: gene PTGER4
# [2] = biological target: Gαs1 (alpha subunit of Gs protein) (UniProt P63092); test: ELISA; Gα (10 μg/ml) immobilised in a high-binding 96-well plate, blocked with 5% skimmed milk; 5-1000 nM P9-EP4 in sarkosyl or in APG added; detected with anti-P9 antibody, HRP anti-mouse IgG and TMB; 25 °C
# Gαs1 (alpha subunit of Gs protein), sequence (P63092 whole entry): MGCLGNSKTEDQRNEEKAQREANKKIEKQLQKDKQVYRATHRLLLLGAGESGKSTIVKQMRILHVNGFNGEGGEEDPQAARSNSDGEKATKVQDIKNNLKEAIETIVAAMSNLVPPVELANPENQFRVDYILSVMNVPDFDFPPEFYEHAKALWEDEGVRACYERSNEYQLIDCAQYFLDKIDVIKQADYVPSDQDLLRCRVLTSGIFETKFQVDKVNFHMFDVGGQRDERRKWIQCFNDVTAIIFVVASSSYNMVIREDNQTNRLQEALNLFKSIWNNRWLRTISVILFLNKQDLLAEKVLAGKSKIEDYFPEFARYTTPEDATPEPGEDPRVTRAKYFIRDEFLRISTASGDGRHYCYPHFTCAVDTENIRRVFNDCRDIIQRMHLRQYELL
# [3] = biological target: Gαi1 (alpha subunit of Gi protein) (UniProt P63096); test: as above
# Gαi1 (alpha subunit of Gi protein), sequence (P63096 whole entry): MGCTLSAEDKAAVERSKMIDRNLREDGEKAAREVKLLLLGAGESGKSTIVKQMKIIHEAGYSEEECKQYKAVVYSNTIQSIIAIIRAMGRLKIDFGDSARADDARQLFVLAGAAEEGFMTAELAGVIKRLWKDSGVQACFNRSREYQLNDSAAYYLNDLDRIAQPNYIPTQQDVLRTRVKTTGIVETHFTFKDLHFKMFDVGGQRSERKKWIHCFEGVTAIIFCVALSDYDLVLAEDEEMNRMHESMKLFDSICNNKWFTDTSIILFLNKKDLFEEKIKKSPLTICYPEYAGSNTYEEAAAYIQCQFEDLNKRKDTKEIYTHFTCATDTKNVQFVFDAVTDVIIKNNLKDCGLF
# [4] = biological target: Gαi3 (alpha subunit of Gi protein) (UniProt P08754); test: as above
# Gαi3 (alpha subunit of Gi protein), sequence (P08754 whole entry): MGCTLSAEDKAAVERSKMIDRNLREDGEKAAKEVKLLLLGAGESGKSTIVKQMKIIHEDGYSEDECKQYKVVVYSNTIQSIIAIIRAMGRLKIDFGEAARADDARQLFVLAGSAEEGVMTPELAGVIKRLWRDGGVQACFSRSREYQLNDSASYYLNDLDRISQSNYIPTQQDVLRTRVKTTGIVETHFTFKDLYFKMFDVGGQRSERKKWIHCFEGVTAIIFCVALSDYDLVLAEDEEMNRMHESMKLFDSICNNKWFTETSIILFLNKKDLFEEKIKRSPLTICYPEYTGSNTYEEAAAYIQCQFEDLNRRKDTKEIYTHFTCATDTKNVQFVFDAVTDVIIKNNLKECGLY
# [5] = biological target: Gαi2 (alpha subunit of Gi protein) (UniProt P04899); test: as above
# Gαi2 (alpha subunit of Gi protein), sequence (P04899 whole entry): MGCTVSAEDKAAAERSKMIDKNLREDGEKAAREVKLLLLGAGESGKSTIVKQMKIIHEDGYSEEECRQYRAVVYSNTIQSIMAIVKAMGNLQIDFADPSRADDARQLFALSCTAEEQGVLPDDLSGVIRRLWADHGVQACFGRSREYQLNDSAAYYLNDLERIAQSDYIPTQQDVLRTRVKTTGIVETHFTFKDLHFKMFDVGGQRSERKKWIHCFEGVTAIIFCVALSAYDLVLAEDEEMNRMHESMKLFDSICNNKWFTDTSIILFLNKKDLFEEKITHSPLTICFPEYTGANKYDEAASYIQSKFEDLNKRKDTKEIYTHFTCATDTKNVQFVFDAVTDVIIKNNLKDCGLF
# P9-EP4 (human prostaglandin E2 receptor 4, amino acids 1-354, fused to the C-terminus of the P9 envelope protein of phage phi6, with a C-terminal His6 tag), sequence (P35408 1-354 limits assumed): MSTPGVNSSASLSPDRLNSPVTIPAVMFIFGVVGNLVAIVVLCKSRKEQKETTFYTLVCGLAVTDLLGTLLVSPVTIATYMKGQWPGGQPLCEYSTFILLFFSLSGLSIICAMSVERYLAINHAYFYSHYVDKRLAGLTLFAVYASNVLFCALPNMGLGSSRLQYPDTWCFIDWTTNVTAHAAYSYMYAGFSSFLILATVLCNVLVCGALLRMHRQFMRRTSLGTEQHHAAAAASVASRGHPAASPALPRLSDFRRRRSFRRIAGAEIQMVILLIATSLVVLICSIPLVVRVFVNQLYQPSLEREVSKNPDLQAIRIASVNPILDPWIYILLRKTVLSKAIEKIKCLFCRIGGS
# T1 sequence (P35408 1-354): as the sequence (P35408 1-354 limits assumed) above
compound,measurement,setting,value
CC(C(=O)Nc1cc(C#N)ccc1CCCC(=O)O)c1ccc(F)c2ccccc12 (centres unmarked) [ONO-AE3-208],Kd,[1],0.68 ± 0.15 µM
"P9-EP4 (human prostaglandin E2 receptor 4, amino acids 1-354, fused to the C-terminus of the P9 envelope protein of phage phi6, with a C-terminal His6 tag) (from UniProt P35408 1-354)",Kd,[2],0.088 µM
same,Kd,[3],0.05 µM
same,Kd,[4],0.214 µM
same,Kd,[5],0.175 µM
